In patent US20230348564A1, “ANTI-CANCER PROTEINS” (UNICHEM LABORATORIES LTD, priority 2020, published 2023):

Key:
[1] = test system: NF-KB; test: SelectScreen Cell-based Pathway Profiling (GeneBLAzer bla reporter); set-up: species or system Human; details: 0.5 μg/mL-50 μg/mL
Description: The mechanism of action of the recombinant lectin having the amino acid sequence of SEQ ID NO.2 is studied by determining its effect on the modulation of key signaling pathways involved in the pathogenesis of cancer. The study was performed using SelectScreen® Cell-based Pathway Profiling Services at Life Technologies, USA. Modulatory effect of Lectin having the amino acid sequence of SEQ ID NO. 2 on various cell signaling pathways was investigated in cell lines overexpressing specific markers using GeneBLAzer Beta-lactamase (bla) Reporter Technology and Tango platforms. The cell lines tested were MDA-MB-231 (Human Breast cancer), KB (Human Cervical cancer), PA-1 (Human ovarian cancer), PANC-1 (Human pancreatic cancer), HT-29 (Human colorectal cancer), T-24 (Human Bladder cancer)
10 mg of recombinant lectin having the amino acid sequence of SEQ ID NO.2 was dissolved in 200 μL of TBS buffer (25 mM, pH 8.0) to obtain stock solution of 50 mg/mL. The stock solutions were diluted in Serum Free Medium (STM) to achieve final concentrations in cells ranging from 0.00158 μg/mL-50 μg/mL. Cells (32 μL) were diluted in Assay Media to appropriate cell density and were added to the assay plate. Cells were incubated at 37° C./5% CO2 for 24 h. 40 nL of 1000×sample and 4 μL of assay medium was added to the cells in the assay plate and incubated for 30 minutes at 37° C./5% CO2 in a humidified incubator. Then, 4 μL of the 10×EC80 concentration of activator was added to all wells containing sample to bring the final assay volume to 40 μL. The assay plate was incubated for 16 hours at 37° C./5% CO2 in a humidified incubator. Further, 8 μL of the Substrate Loading Solution (LiveBLAzer™—FRET B/G) was added to the assay plate. The assay plate was incubated for 2 hours at room temperature, in the dark. The assay plate was read on a fluorescence plate reader (Tecan Safire2). Fluorescence emission values at 460 nm and 530 nm were obtained using a standard florescence plate reader and % modulation was determined.
% Modulation=[(A−B)/A]*100
Where, A=Fluorescence reading in Control (untreated cells) B=Fluorescence reading in TI treated cells

[2] = test system: PANC-1; test: JC-1 assay, mitochondrial membrane depolarization; type: cell-based, Human; details: 16h
Description: To evaluate the in vitro apoptotic effect of recombinant lectin having the amino acid sequence of SEQ ID NO.2 in MDA-MB-231 (breast cancer) and PANG-1 (pancreatic cancer) cell line by JC-1 assay, an increase in mitochondrial membrane depolarization was used as a marker of apoptosis. […] 2 using JC-1 dye based method. […] The cell lines were grown in Dulbecco's Modified Eagle Medium (DMEM)+10% heat inactivated FBS at 37° C. (95% humidity and 5% CO2). […] Recombinant lectin having the amino acid sequence of SEQ ID NO. 2 was diluted in serum free medium. Doxorubicin was used as positive control and stock solution was prepared in dimethyl sulfoxide (DMSO). […] The cells were then incubated overnight under growth conditions to allow the cell recovery and exponential growth. Cells were treated with the recombinant lectin of SEQ ID NO. […] Following respective treatments the cells in the above plate were incubated for 16h in CO2 incubator at 37° C., 5% CO2 and 95% humidity.
After 16h of incubation, the supernatants were discarded and 100 μL of JC1-dye solution (prepared by diluting 1 mM DMSO stock in to 10 μM in 1×PBS) was added to each well. The cells were then incubated with the dye in CO2 incubator at 37° C. for 15 min. After 15 min of incubation, the supernatant was removed and the cells were washed twice with 1×PBS and then 100 μL of 1×PBS was added to each well. Red fluorescence (excitation 550 nm, emission 600 nm) and green fluorescence (excitation 485 nm, emission 535 nm) were measured using Biotek Synergy FIT plate reader. The mitochondrial membrane potential […] was calculated as the ratio of intensity of red fluorescence to intensity of green fluorescence described as follows:
ΔΨM=Intensity of red fluorescence/Intensity of green fluorescence
The percentage decrease of Red fluorescence/Green fluorescence corresponding to each treatment was calculated using the following formula:
Where X=Δψm corresponding to treated cells R=ΔΨM corresponding to control wells.

[3] = test system: neovascularization of Matrigel plug containing FGF-2 (bFGF); test: Matrigel plug assay (in-vivo anti-angiogenesis); set-up: species or system C57BL/6 mice; details: qdx15
Description: Healthy C57BL/6 mice were selected and grouped on the basis of body weight into […] (G1-G4, n=7). Each mouse of group G2-G4 was subcutaneously injected at right flank region with 500 μl of matrigel containing 500 ng of FGF-2 (bFGF). Whereas mice of G1 group were subcutaneously injected at right flank region with 500 μl of matrigel only. In this assay, angiogenesis-inducing compounds such as bFGF was introduced into cold liquid Matrigel which, after subcutaneous injection, solidified and permits penetration by host cells and the formation of new blood vessels (neovascularization).
Required amount of test items were taken and added to an appropriate volume of Tris Buffered Saline (TBS) to achieve the required concentrations. The dose volume given to animal was 10 mL/Kg.
Daily cage-side observations were carried out to detect any clinical signs or mortality and recorded throughout the experiment period.

[4] = test system: AGS
[5] = test system: HT-29
[6] = test system: Glioblastoma (U251MG); test: cytotoxicity in Brain Tumor Cell lines by MTT assay; details: 72 h

B1: SEQ ID NO. 2: recombinant lectin; variant of the S. rolfsii lectin amino acid sequence (reported as Rec-2 in WO 2010/095143) (protein)
chain: TYKITVRVYQTNPDAFFHPVEKTVWKYANGGTWTITDDQHVLTMGGSGTSGTLRFHADNGESFTATFGVHNYKRWCDIVTNLAADETGMVINQQYYSQKNREEARERQLSNYQVKNAKGRNFQIVYTEAEGNDLHANLIIG
modifications: In vitro synthesis
- Effect (wrt control), inhibition [1]: 3%-13% inhibition
- Effect (wrt control), inhibition ([1]; listed as recombinant lectin): 3% to 13%
- Average Green fluorescence ([2]; 2.5 μg/mL): 315.0
- Average Red fluorescence ([2]; 2.5 μg/mL): 595.7
- Percentage decrease in MMP (%) ([2]; 2.5 μg/mL): 9.5%
- Red/Green ratio ([2]; 2.5 μg/mL): 1.89
- depolarization of mitochondrial membrane ([2]; 2.5 μg/mL-80 μg/mL): 9.5%-51.7%
- Average Green fluorescence ([2]; 5 μg/mL): 293.3
- Average Red fluorescence ([2]; 5 μg/mL): 452.3
- Percentage decrease in MMP (%) ([2]; 5 μg/mL): 26.2%
- Red/Green ratio ([2]; 5 μg/mL): 1.54
- Average Green fluorescence ([2]; 10 μg/mL): 271.7
- Average Red fluorescence ([2]; 10 μg/mL): 301.7
- Percentage decrease in MMP (%) ([2]; 10 μg/mL): 46.9%
- Red/Green ratio ([2]; 10 μg/mL): 1.11
- Average Green fluorescence ([2]; 20 μg/mL): 234.3
- Average Red fluorescence ([2]; 20 μg/mL): 265.7
- Percentage decrease in MMP (%) ([2]; 20 μg/mL): 45.8%
- Red/Green ratio ([2]; 20 μg/mL): 1.13
- Average Green fluorescence ([2]; 40 μg/mL): 263.3
- Average Red fluorescence ([2]; 40 μg/mL): 266.0
- Percentage decrease in MMP (%) ([2]; 40 μg/mL): 51.7%
- Red/Green ratio ([2]; 40 μg/mL): 1.01
- Average Green fluorescence ([2]; 80 μg/mL): 257.0
- Average Red fluorescence ([2]; 80 μg/mL): 272.0
- Percentage decrease in MMP (%) ([2]; 80 μg/mL): 49.4%
- Red/Green ratio ([2]; 80 μg/mL): 1.06
- neovascularization (H&E histology), in words ([3]; 10 mg/Kg, i.p.): marginally reduced
- Hemoglobin Content in the Matrigel Plug Section, Mean ([3]; G4, 10 mg/Kg, i.p.): 41.10
- reduction in hemoglobin content in homogenate of Matrigel plug compared to positive control ([3]; G4, 10 mg/Kg, i.p.): 23.6%
- Histological Observation, Fat cell Infiltration, Mean ([3]; G4, 10 mg/Kg): 1.57
- Histological Observation, Fibroblast Infiltration, Mean ([3]; G4, 10 mg/Kg): 3.29
- Histological Observation, MN cell Infiltration, Mean ([3]; G4, 10 mg/Kg): 2.71
- Histological Observation, Neovascularization, Mean ([3]; G4, 10 mg/Kg): 2.43
- % Cytotoxicity [4]: 65.3%
- % Cytotoxicity [5]: 54.9%
- IC50 Value [6]: 11.05 mg/L
